Where “and” joins values, the source holds several entries; their conditions need not be identical. Equal values may be shown once.
Key:
[1] = test system: patients with chronic plaque psoriasis; assay: PGA, 16-week open-label Phase IIIb trial after suboptimal response to ETN, MTX or NB-UVB; assay type: in vivo, human; conditions: week 16
From the text: (§1) This 16-week, multicenter, open-label, Phase IIIb trial enrolled patients with chronic plaque psoriasis who were having a suboptimal response to ETN (Physician's Global Assessment [PGA]≧mild with months of therapy, or ≧3 months of therapy and deterioration of efficacy), MTX (PGA≧mild with ≧4 months of therapy), or narrow-band ultraviolet B (NB-UVB) phototherapy (PGA moderate with months of therapy). […] The primary endpoint was the proportion of patients who achieved PGA of clear or minimal at week 16. A secondary endpoint was the proportion achieving ≧1 grade of PGA improvement. Safety was assessed throughout the study. Efficacy analyses were intention to treat, with nonresponder imputation used for missing data. Efficacy and safety results were analyzed overall and for each prior-treatment group.

[2] = test system: patients with moderate to severe chronic plaque psoriasis; conditions: in vivo
From the text: The study was a multi-center, 16-week, randomized controlled Phase III trial. The main inclusion criteria included: • Clinical diagnosis of psoriasis for ≧1 year • Affected body surface area (BSA)≧10% • Psoriasis Area and Severity Index (PASI)≧10 The main exclusion criteria was previous use of MTX or systemic anti-TNF therapy.

[3] = test system: patients with chronic plaque psoriasis; conditions: in vivo
From the text: as §1

[4] = test system: patients with moderate to severe chronic plaque psoriasis; assay: Adverse events, Phase II trial with 48-week extension; conditions: for patients with serious adverse events (SAEs): 60-week trial
From the text: The study was a randomized, double-blind, placebo-controlled, multi-center clinical trial, wherein patients were randomized to one of three treatment groups. The three treatment groups consisted of the following: • 1. […] Inclusion criteria included a diagnosis of moderate to severe chronic plaque psoriasis≧1 year prior to entry, a psoriasis-affected body surface area (BSA)>5%, and no previous use of TNF-antagonist therapy.
Inclusion criteria for the study included the following parameters: ≧18 years of age; moderate to severe chronic plaque psoriasis≧1 year; and affected BSA≧5%. […] Efficacy outcome measures included PASI and PGA.
Inclusion criteria included patients being 18 years of age; having moderate to severe chronic plaque psoriasis≧1 year; and affected BSA≧5%. Exclusion criteria included prior TNF-antagonist therapy and discontinuation of other systemic psoriasis therapies. Efficacy outcome measures which were used included PASI, PGA, DLQI.
Inclusion criteria included: • ≧18 years of age • Moderate to severe chronic plaque psoriasis 1 year • Affected BSA≧5% Exclusion criteria included: • Prior TNF-antagonist therapy • Discontinuation of other systemic psoriasis therapies Efficacy outcome was measured using PASI and DLQI responses/scores.

[5] = Week 0-12, 40 mg weekly (N = 50)
[6] = Week 0-60, 40 mg weekly (N = 50)
[7] = Week 0-60, Placebo/Adalimumab 40 mg eow (N = 52)
[8] = Week 12-60, 40 mg weekly (n = 50)
[9] = Week 12-60, Placebo/Adalimumab 40 mg eow + Adalimumab 40 mg eow (n = 92)
[10] = Weeks 0-12, 40 mg weekly (n = 50)
[11] = Weeks 0-12, 40 mg weekly, prior biologic use (n = 9)
[12] = Weeks 12-60, 40 mg weekly (n = 50)
[13] = Weeks 12-60, 40 mg weekly, no prior use (n = 24)
[14] = Weeks 12-60, 40 mg weekly, prior biologic use (n = 7)
[15] = Weeks 12-60, 40 mg weekly, prior systemic use (n = 21)
[16] = Weeks 12-60, Placebo/Adalimumab 40 mg eow + Adalimumab 40 mg eow (n = 92)
[17] = Weeks 12-60, placebo/adalimumab 40 mg eow + adalimumab 40 mg eow, no prior use (n = 47)
[18] = Weeks 12-60, placebo/adalimumab 40 mg eow + adalimumab 40 mg eow, prior biologic use (n = 16)
[19] = Weeks 12-60, placebo/adalimumab 40 mg eow + adalimumab 40 mg eow, prior systemic use (n = 35)
[20] = all patients, Weeks 0-12, 40 mg eow (N = 45)
[21] = all patients, Weeks 0-12, 40 mg weekly (N = 50)
[22] = all patients, Weeks 12-60, 40 mg weekly (n = 50)
[23] = all patients, Weeks 12-60, placebo/adalimumab 40 mg eow + adalimumab 40 mg eow (N = 92)
[24] = baseline PASI ≧10 and DLQI >10, Weeks 0-12, 40 mg eow (N = 26)
[25] = baseline PASI ≧10 and DLQI >10, Weeks 0-12, 40 mg weekly (N = 23)
[26] = baseline PASI ≧10 and DLQI >10, Weeks 12-60, 40 mg weekly (N = 23)
[27] = baseline PASI ≧10 and DLQI >10, Weeks 12-60, placebo/adalimumab 40 mg eow + adalimumab 40 mg eow (N = 41)
[28] = weeks 12-60, 40 mg weekly (N = 50)
[29] = weeks 12-60, placebo/adalimumab 40 mg eow + adalimumab 40 mg eow (N = 92)

Q: What does the source list for “Adalimumab: a human anti-TNF mAb, described in U.S. Pat. No. 6,090,382 as D2E7 (HUMIRA, Abbott Laboratories)”?
A: ≧1 grade improvement in PGA ([1]; all patients): 75.0%; PGA of clear or minimal ([1]; prior ETN group): 48.8%; ≧1 grade improvement in PGA ([1]; prior ETN group): 72.0%; PGA of clear or minimal ([1]; prior MTX group): 61.0%; ≧1 grade improvement in PGA ([1]; prior MTX group): 78.0%; PGA of clear or minimal ([1]; prior NB-UVB group): 48.3%; ≧1 grade improvement in PGA ([1]; prior NB-UVB group): 79.3%; Any infectious AE [2]: 51 (48) n (%); Any infectious SAE [2]: 0 (0) n (%); serious infection [3]: One subject; Withdrawals: Abnormal lab value, number of patients ([4]; Week 0-12, 40 mg eow (N = 45)): 0; Withdrawals: Adverse events, number of patients ([4]; Week 0-12, 40 mg eow (N = 45)): 2; Withdrawals: Lack of Efficacy, number of patients ([4]; Week 0-12, 40 mg eow (N = 45)): 0; Withdrawals: Abnormal lab value, number of patients [4, 5]: 1; Withdrawals: Adverse events, number of patients [4, 5]: 2; Withdrawals: Lack of Efficacy, number of patients [4, 5]: 0; Withdrawals: Abnormal lab value, number of patients ([4]; Week 0-60, 40 mg eow (N = 45)): 0; Withdrawals: Adverse events, number of patients ([4]; Week 0-60, 40 mg eow (N = 45)): 4; Withdrawals: Lack of Efficacy, number of patients ([4]; Week 0-60, 40 mg eow (N = 45)): 6; Withdrawals: Abnormal lab value, number of patients [4, 6]: 1; Withdrawals: Adverse events, number of patients [4, 6]: 8; Withdrawals: Lack of Efficacy, number of patients [4, 6]: 4; Withdrawals: Abnormal lab value, number of patients [4, 7]: 0; Withdrawals: Adverse events, number of patients [4, 7]: 2; Withdrawals: Lack of Efficacy, number of patients [4, 7]: 6; Back pain, number of patients [4, 8]: 4 n; Back pain, percent of patients [4, 8]: (8.0) %; Blood creatine phosphokinase increased, number of patients [4, 8]: 2 n; Blood creatine phosphokinase increased, percent of patients [4, 8]: (4.0) %; Blood triglycerides increased, number of patients [4, 8]: 2 n; Blood triglycerides increased, percent of patients [4, 8]: (4.0) %; Headache, number of patients [4, 8]: 6 n; Headache, percent of patients [4, 8]: (12.0) %; Muscle strain, number of patients [4, 8]: 4 n; Muscle strain, percent of patients [4, 8]: (8.0) %; Nasopharyngitis, number of patients [4, 8]: 6 n; Nasopharyngitis, percent of patients [4, 8]: (12.0) %; Skin papilloma, number of patients [4, 8]: 5 n; Skin papilloma, percent of patients [4, 8]: (10.0) %; Upper Respiratory Infection, Not otherwise specified, number of patients [4, 8]: 7 n; Upper Respiratory Infection, Not otherwise specified, percent of patients [4, 8]: (14.0) %; Upper Respiratory Infection, Viral not otherwise specified, number of patients [4, 8]: 3 n; Upper Respiratory Infection, Viral not otherwise specified, percent of patients [4, 8]: (6.0) %; Urticaria, number of patients [4, 8]: 3 n; Urticaria, percent of patients [4, 8]: (6.0) %; Back pain [4, 9]: 4 (4.3) n (%); Blood creatine phosphokinase increased [4, 9]: 5 (5.4) n (%); Blood triglycerides increased [4, 9]: 7 (7.6) n (%); Headache [4, 9]: 3 (3.3) n (%); Muscle strain [4, 9]: 1 (1.1) n (%); Nasopharyngitis [4, 9]: 13 (14.1) n (%); Skin papilloma [4, 9]: 3 (3.3) n (%); Upper Respiratory Infection, Viral not otherwise specified [4, 9]: 4 (4.3) n (%); Urticaria [4, 9]: 0 (0.0) n (%); Adverse Events Leading to Withdrawal ([4]; Weeks 0-12, 40 mg eow (n = 45)): 2 (4.4) n (%); Any Adverse Event ([4]; Weeks 0-12, 40 mg eow (n = 45)): 28 (62.2) n (%); Serious Adverse Events ([4]; Weeks 0-12, 40 mg eow (n = 45)): 1 (2.2 n (%); Adverse Events Leading to Withdrawal [4, 10]: 3 (6.0) n (%); Any Adverse Event [4, 10]: 39 (78.0) n (%); Serious Adverse Events [4, 10]: 4 (8.0) n (%); AE's→Withdrawal [4, 11]: 2 (22) n (%); Any AE [4, 11]: 6 (67) n (%); Serious AE [4, 11]: 2 (22) n (%); Adverse Events Leading to Withdrawal [4, 12]: 5 (10.0) n (%); Any Adverse Event [4, 12]: 39 (78.0) n (%); Serious Adverse Events [4, 12]: 7 (14.0) n (%); AE's→Withdrawal [4, 13]: (8) %; AE's→Withdrawal, number of patients [4, 13]: 2; Any AE [4, 13]: (79) %; Any AE, number of patients [4, 13]: 19; Serious AE [4, 13]: (17) %; Serious AE, number of patients [4, 13]: 4; AE's→Withdrawal [4, 14]: (0) %; AE's→Withdrawal, number of patients [4, 14]: 0; Any AE [4, 14]: (86) %; Any AE, number of patients [4, 14]: 6; Serious AE [4, 14]: (0) %; Serious AE, number of patients [4, 14]: 0; AE's→Withdrawal [4, 15]: (14) %; AE's→Withdrawal, number of patients [4, 15]: 3; Any AE [4, 15]: (81) %; Any AE, number of patients [4, 15]: 17; Serious AE [4, 15]: (10) %; Serious AE, number of patients [4, 15]: 2; Adverse Events Leading to Withdrawal [4, 16]: 3 (3.3) n (%); Any Adverse Event [4, 16]: 72 (78.3) n (%); Serious Adverse Events [4, 16]: 2 (2.2) n (%); AE's→Withdrawal [4, 17]: (2) %; AE's→Withdrawal, number of patients [4, 17]: 1; Any AE [4, 17]: (79) %; Any AE, number of patients [4, 17]: 37; Serious AE [4, 17]: (0) %; Serious AE, number of patients [4, 17]: 0; AE's→Withdrawal [4, 18]: (6) %; AE's→Withdrawal, number of patients [4, 18]: 1; Any AE [4, 18]: (75) %; Any AE, number of patients [4, 18]: 12; Serious AE [4, 18]: (13) %; Serious AE, number of patients [4, 18]: 2; AE's→Withdrawal [4, 19]: (6) %; AE's→Withdrawal, number of patients [4, 19]: 2; Any AE [4, 19]: (80) %; Any AE, number of patients [4, 19]: 28; Serious AE [4, 19]: (6) %; Serious AE, number of patients [4, 19]: 2; patients who withdrew due to adverse events ([4]; Weeks 12-60, range across treatment groups): 3-10%; AEs leading to withdrawal [4, 20]: 2 (4) n (%) and 2 (4.4) n (%); Any AE [4, 20]: 28 (62) n (%) and 28 (62.2) n (%); Serious AEs [4, 20]: 1 (2) n (%) and 1 (2.2) n (%); AEs leading to withdrawal [4, 21]: 3 (6) n (%); Any AE [4, 21]: 39 (78) n (%); Serious AEs [4, 21]: 4 (8) n (%); AEs leading to withdrawal [4, 22]: 5 (10) n (%); Any AE [4, 22]: 39 (78) n (%); Serious AEs [4, 22]: 7 (14) n (%); AEs leading to withdrawal [4, 23]: 3 (3) n (%) and 3 (3.3) n (%); Any AE [4, 23]: 72 (78) n (%) and 72 (87.3) n (%); Serious AEs [4, 23]: 2 (2) n (%) and 2 (2.2) n (%); AEs leading to withdrawal [4, 24]: 0 (0) n (%); Any AE [4, 24]: 16 (62) n (%); Serious AEs [4, 24]: 0 (0) n (%); AEs leading to withdrawal [4, 25]: 1 (4) n (%); Any AE [4, 25]: 19 (83) n (%); Serious AEs [4, 25]: 2 (9) n (%); AEs leading to withdrawal [4, 26]: 0 (0) n (%); Any AE [4, 26]: 11 (48) n (%); Serious AEs [4, 26]: 0 (0) n (%); AEs leading to withdrawal [4, 27]: 2 (5) n (%); Any AE [4, 27]: 23 (56) n (%); Serious AEs [4, 27]: 1 (2) n (%); Serious Adverse Events ([4]; dosage escalation group): no serious adverse events were observed; withdrew from the study due to adverse events ([4]; dosage escalation group): two others; Serious Adverse Events ([4]; dosage escalation group, listed as adalimumab): One patient; patients who had adverse events ([4]; patients with PASI 75-99 and DLQI=0): 80%; patients who had adverse events ([4]; patients with PASI 75-99 and DLQI>0): 91%; patients who had adverse events ([4]; patients with PASI 100 and DLQI=0): 91%; patients who had adverse events ([4]; patients with PASI 100 and DLQI>0): 50%; patients with serious adverse events (SAEs) ([4]; prior-biologic patients): 4 patients; patients with serious adverse events (SAEs) ([4]; prior-systemic patients): 7 patients; Back pain, number of patients [4, 28]: 4; Back pain, percentage (in parentheses) [4, 28]: (8.0); Blood CPK increased, number of patients [4, 28]: 2; Blood CPK increased, percentage (in parentheses) [4, 28]: (4.0); Blood TG increased, number of patients [4, 28]: 2; Blood TG increased, percentage (in parentheses) [4, 28]: (4.0); Headache, number of patients [4, 28]: 6; Headache, percentage (in parentheses) [4, 28]: (12.0); Muscle strain, number of patients [4, 28]: 4; Muscle strain, percentage (in parentheses) [4, 28]: (8.0); Nasopharyngitis, number of patients [4, 28]: 6; Nasopharyngitis, percentage (in parentheses) [4, 28]: (12.0); Skin papilloma, number of patients [4, 28]: 5; Skin papilloma, percentage (in parentheses) [4, 28]: (10.0); URI, NOS, number of patients [4, 28]: 7; URI, NOS, percentage (in parentheses) [4, 28]: (14.0); URI, viral NOS, number of patients [4, 28]: 3; URI, viral NOS, percentage (in parentheses) [4, 28]: (6.0); Urticari, number of patients [4, 28]: 3; Urticari, percentage (in parentheses) [4, 28]: (6.0); Back pain, number (percentage in parentheses) [4, 29]: 4 (4.3); Blood CPK increased, number (percentage in parentheses) [4, 29]: 5 (5.4); Blood TG increased, number (percentage in parentheses) [4, 29]: 7 (7.6); Headache, number (percentage in parentheses) [4, 29]: 3 (3.3); Muscle strain, number (percentage in parentheses) [4, 29]: 1 (1.1); Nasopharyngitis, number (percentage in parentheses) [4, 29]: 13 (14.1); Skin papilloma, number (percentage in parentheses) [4, 29]: 3 (3.3); URI, NOS, number (percentage in parentheses) [4, 29]: 9 (9.8); URI, viral NOS, number (percentage in parentheses) [4, 29]: 4 (4.3); Urticari, number (percentage in parentheses) [4, 29]: 0 (0.0); patients with serious adverse events (SAEs) ([4]; without recent prior systemic or biologic therapy): 5 patients

— patent US9605064B2, “Methods and compositions for treatment of skin disorders” (AbbVie Biotechnology Ltd, priority 2006, dated 2017)
